Experimental findings from US20130224246A1 (MACFARLANE BURNET INSTITUTE FOR MEDICAL RESEARCH AND PUBLIC …, published 2013) are described below.

Test [1] addresses WT E2661 M + C597A (C452A, C486A, C569A, C581A, C585A, C597A and C652A) (HCV genotype 1a H77c, UniProt P27958 384-661). As to the kind of experiment: EIA: E2 titrated on coated MBP-LEL113-201 (5 ug/ml), detected with anti-His.
Another test concerns the target Δ123 E2661 M + C597A (HCV genotype 1a H77c, UniProt P27958 409-661). The description is as above.

B1: MBP-LEL113-201, maltose-binding protein linked to the CD81 large extracellular loop between residues 113 to 201 (receptor)
chain: FVNKDQIAKDVKQFYDQALQQAVVDDDANNAKAVVKTFHETLDCCGSSTLTALTTSVLKNNLCPSGSNIISNLFKEDCHQKIDDLFSGK
notes: range 113-201; also called CD81-LEL; CD81 LEL
Regarding B1, the binding result (in test [1]; with Δ123 E2661 M + C597A) was “binds” in each case.
